B1: CPEB3 Ribozyme (parent)
chain: GGGGGCCACAGCAGAAGCGUUCACGUCGCGGCCCCUGUCAGAUUCUGGUGAAUCUGCGAAUUCUGCUGU

Variants of: B1
Assay: self-cleavage, relative activity (ratio to wild type); higher = more cleavage; co-transcriptional

Compared with GGGGGUCACAGCAGAAGCGUUCACUUCGCGGCCCCUGUCAGAUUCUGGUGAAUCUGCGAAUUCUGCUGU, GGGGGUCACAGCAGAAGCGUUCACAUCGCGGCCCCUGUCAGAUUCUGGUGAAUCUGCGAAUUCUGCUGU is lower in self-cleavage: 0.18 for the first, 0.141 for the second.

Compared with GGGGGCAACAGCAGAAGCGUUAACGUCGCGGCCCCUGUCAGAUUCUGGUGAAUCUGCGAAUUCUGCUGU, GGGGGCAACAGCAGAAGCGUUUACGUCGCGGCCCCUGUCAGAUUCUGGUGAAUCUGCGAAUUCUGCUGU is higher in self-cleavage: 0.0549 for the first, 0.139 for the second.

First: GGGGGCAACAGCAGAAGCGUUCACGUCGCGGCCCCUGUCAGAUUCUCGUGAAUCUGCGAAUUCUGCUGU
Second: GGGGGCAACAGCAGAAGCGUUCACGUCGCGGCCCCUGUCAGAUUCUUGUGAAUCUGCGAAUUCUGCUGU
The self-cleavage of the first is lower: 0.593 for the first, 0.637 for the second.

Compared with GGGGGCAACAGCAGAAGCGUUCACGUCGCGGCCCCUGUCAGAUUCUAGUGAAUCUGCGAAUUCUGCUGU, GGGGGCAACAGCAGAAGCGUUCACGUCGAGGCCCCUGUCAGAUUCUGGUGAAUCUGCGAAUUCUGCUGU is lower in self-cleavage: 0.612 for the first, 0.0674 for the second.

First: GGGGGUCACAGCAGAAGCGUUCACGUCGCGGCCCCUGUCAGAUUCUGGUUAAUCUGCGAAUUCUGCUGU
Second: GGGGGUCACAGCAGAAGCGUUCACGUCGCGGCCCCUGUCAGAUUCUGGUCAAUCUGCGAAUUCUGCUGU
The self-cleavage of the first is lower: 0.979 for the first, 1.02 for the second.

First: GGGGGUCACAGCAGAAGCGUUCACGGCGCGGCCCCUGUCAGAUUCUGGUGAAUCUGCGAAUUCUGCUGU
Second: GGGGGUCACAGCAGAAGCGUUCACGUCGCGGCCCCUGUCAGAUUCUGGUGAAUCUGCGAAUUCUGCUGC
The self-cleavage of the first is lower: 0.91 for the first, 1.06 for the second.

First: GGGGGUCACAGCAGAAGCGUUCACGUCGCGGCCCCUGUCAGAUUCUGGAGAAUCUGCGAAUUCUGCUGU
Second: GGGGGUCACAGCAGAAGCGUUCACGUCGCGGCCCCUGUCAGAUUCUGGGGAAUCUGCGAAUUCUGCUGU
The self-cleavage of the first is higher: 1 for the first, 0.956 for the second.

First: GGGGGCAACAGCAGAAGCGUUCCCGUCGCGGCCCCUGUCAGAUUCUGGUGAAUCUGCGAAUUCUGCUGU
Second: GGGGGCAACAGCAGAAGCGUUCACGUCGCGGCCCCUGUCAGAUUCUGGUGAAUCUGCGAAUUGUGCUGU
The self-cleavage of the first is higher: 0.407 for the first, 0.303 for the second.

Going from GGGGGCAACAGCAGAAGCGUUCACGUCGCGGCCCCUGUCAGAUUCUGGUGAAUCUGCGAAUUAUGCUGU to GGGGGUCACAGCAGAAGCGUUCACGUCGCGGCCCCUGUCAGAUGCUGGUGAAUCUGCGAAUUCUGCUGU, the self-cleavage rises from 0.149 to 1.01.

Going from GGGGGCAACAGCAGAAGCAUUCACGUCGCGGCCCCUGUCAGAUUCUGGUGAAUCUGCGAAUUCUGCUGU to GGGGGCAACUGCAGAAGCGUUCACGUCGCGGCCCCUGUCAGAUUCUGGUGAAUCUGCGAAUUCUGCUGU, the self-cleavage rises from 0.14 to 0.912.

Going from GGGGGUCACAGCAGAAGCGUUCACGUCGCGGCCCCUGUCAGAUUCUGGUGAAUCUGCGAAUUCUGCCGU to GGGGGUCACAGCAGAAGCGUUCACGUCGCGGCCCCUGUCAGAUUCUGGUGAAUCUGCGAAUUCUGCAGU, the self-cleavage falls from 1.02 to 0.995.

First: GGGGGCAACAGCAGAAGCGUUCACGUCGCGGACCCUGUCAGAUUCUGGUGAAUCUGCGAAUUCUGCUGU
Second: GGGGGUCACAGCAGAAGCGUUCACGUCGCGGCCCCUGUCAGAUUCUGUUGAAUCUGCGAAUUCUGCUGU
The self-cleavage of the first is lower: 0.165 for the first, 1 for the second.

First: GGGGGUCACAGCAGAAGCGUUCACGUCGCGGCCCCUGUCAGAUUCUGGUGAAUCUGCGAAUCCUGCUGU
Second: GGGGGUCACAGCAGAAGCGUUCACGUCGCGGCCCCUGUCAGAUUCUGGUGAAUCUGCGAAUUCUACUGU
The self-cleavage of the first is lower: 0.811 for the first, 0.849 for the second.

Going from GGGGGCAACAGCAGAAGCGUUCACGUCGCGGCCCCUGUCAGAUUCUGGUGAAUCUGGGAAUUCUGCUGU to GGGGGCAACAGCAGAAGCGUUCACGUCGCGGCCCCUGGCAGAUUCUGGUGAAUCUGCGAAUUCUGCUGU, the self-cleavage falls from 0.179 to 0.0677.

Going from GGGGGUCACAGCAGAAGCGUUCACGUCUCGGCCCCUGUCAGAUUCUGGUGAAUCUGCGAAUUCUGCUGU to GGGGGUCACAGCAGAAGCGUUCACGUCGCGGCCCCUGUCAGAGUCUGGUGAAUCUGCGAAUUCUGCUGU, the self-cleavage rises from 0.168 to 0.815.

Going from GGGGGUCACAGCAGAAGCGUUCACGUCGCGGCCCCUGUCAGACUCUGGUGAAUCUGCGAAUUCUGCUGU to GGGGGCAACAGCAGAAGCGUUCACGUCGCGGCCCCUGUCAGAUUCUGGUCAAUCUGCGAAUUCUGCUGU, the self-cleavage falls from 0.902 to 0.545.

First: GGGGGCAACAGCAGAAGCGUUCACGUCGCGGCCCCUGUGAGAUUCUGGUGAAUCUGCGAAUUCUGCUGU
Second: GGGGGUCACAGCAGAAGCGUUCACGUCGCGGCCCCUGUCAGAUUCUGGUGAAUCUGCUAAUUCUGCUGU
The self-cleavage of the first is lower: 0.428 for the first, 1.01 for the second.

First: GGGGGUCACAGCAGAAGCUUUCACGUCGCGGCCCCUGUCAGAUUCUGGUGAAUCUGCGAAUUCUGCUGU
Second: GGGGGCAACAGCAGAAGCGUUCACGACGCGGCCCCUGUCAGAUUCUGGUGAAUCUGCGAAUUCUGCUGU
The self-cleavage of the first is higher: 0.298 for the first, 0.176 for the second.

First: GGGGGCAACAGCAGAGGCGUUCACGUCGCGGCCCCUGUCAGAUUCUGGUGAAUCUGCGAAUUCUGCUGU
Second: GGGGGCAACAGCAGACGCGUUCACGUCGCGGCCCCUGUCAGAUUCUGGUGAAUCUGCGAAUUCUGCUGU
The self-cleavage of the first is higher: 0.383 for the first, 0.0791 for the second.

First: GGGGGCAACAGCAGAAGCGUUCACGUCGCGGCCCCUGUCAGAUUCUGGUGUAUCUGCGAAUUCUGCUGU
Second: GGGGGCAACAGCAGAAGCGUUCACGUCGCGGCCCCUGUCAAAUUCUGGUGAAUCUGCGAAUUCUGCUGU
The self-cleavage of the first is higher: 0.402 for the first, 0.255 for the second.

Going from GGGGGCAACAGCAGAAGCGUUCACGUCGCGGCCCCUGUCAUAUUCUGGUGAAUCUGCGAAUUCUGCUGU to GGGGGCAACAGCAGAAGCGUUCACGUCGCGGCCCCUGUCGGAUUCUGGUGAAUCUGCGAAUUCUGCUGU, the self-cleavage rises from 0.214 to 0.416.

Going from GGGGGCAACAGCAGAAGCGUUCACGUCGCGGCCCCUGUCAGAUUCUGGUGAAUCUGCCAAUUCUGCUGU to GGGGGUCACAGCAGAAUCGUUCACGUCGCGGCCCCUGUCAGAUUCUGGUGAAUCUGCGAAUUCUGCUGU, the self-cleavage falls from 0.464 to 0.209.

Going from GGGGGCAACAGCAGAAGCGUUCACGUCGCGGCCCCUGUCAGAUUCUGGUGAAUCUGCGCAUUCUGCUGU to GGGGGCAACAGCAGAAGCGUUCACGUCGCGUCCCCUGUCAGAUUCUGGUGAAUCUGCGAAUUCUGCUGU, the self-cleavage rises from 0.239 to 0.598.

Compared with GGGGGUCACAGCAGAAGCGUUCACGUCGCGGCCCCUGUCAGAUUCUGGUGAAUCUACGAAUUCUGCUGU, GGGGGCAACAGCAGAAGCGUUCACGUCGCGGCCCCUGUCAGAUUCUGGUGAAUGUGCGAAUUCUGCUGU is lower in self-cleavage: 0.962 for the first, 0.101 for the second.

Compared with GGGGGUCACAGCAGAAGCGUUCACGUCGCGGCCCCUGACAGAUUCUGGUGAAUCUGCGAAUUCUGCUGU, GGGGGCAACAGCAGAAGCGUUCACGUCGCGGCCCAUGUCAGAUUCUGGUGAAUCUGCGAAUUCUGCUGU is lower in self-cleavage: 0.916 for the first, 0.126 for the second.

Compared with GGGGGUCACAGCAGAAGCGUACACGUCGCGGCCCCUGUCAGAUUCUGGUGAAUCUGCGAAUUCUGCUGU, GGGGGCAACAGCCGAAGCGUUCACGUCGCGGCCCCUGUCAGAUUCUGGUGAAUCUGCGAAUUCUGCUGU is lower in self-cleavage: 0.997 for the first, 0.277 for the second.

Compared with GGGGGCACCAGCAGAAGCGUUCACGUCGCGGCCCCUGUCAGAUUCUGGUGAAUCUGCGAAUUCUGCUGU, GGGGGCAACAGCAGAAGUGUUCACGUCGCGGCCCCUGUCAGAUUCUGGUGAAUCUGCGAAUUCUGCUGU is lower in self-cleavage: 0.769 for the first, 0.224 for the second.

First: GGGGGCAACAGCAGAAGGGUUCACGUCGCGGCCCCUGUCAGAUUCUGGUGAAUCUGCGAAUUCUGCUGU
Second: GGGGGCAACAGCAGAAGCGUUCACGUCGCGGCCCCUGUCAGAUUAUGGUGAAUCUGCGAAUUCUGCUGU
The self-cleavage of the first is lower: 0.159 for the first, 0.485 for the second.

Compared with GGGGGCAACAGCAGAAGCGUUCACGUCGCGGCCCCUGUCAGAUUUUGGUGAAUCUGCGAAUUCUGCUGU, GGGGGUCACAGCAGAAGCGUUCACGUCGCGACCCCUGUCAGAUUCUGGUGAAUCUGCGAAUUCUGCUGU is higher in self-cleavage: 0.566 for the first, 1.02 for the second.

Compared with GGGGGCAACACCAGAAGCGUUCACGUCGCGGCCCCUGUCAGAUUCUGGUGAAUCUGCGAAUUCUGCUGU, GGGGGUCACAGCAGAAGCGUUCACGUCGCGGCCCCUGUCAUAUUCUGGUGAAUCUGCGAAUUCUGCUGU is higher in self-cleavage: 0.305 for the first, 0.817 for the second.

Compared with GGGGGUCACAGCAGAAGCGUUCACGUCGCGGCCCCCGUCAGAUUCUGGUGAAUCUGCGAAUUCUGCUGU, GGGGGCAACAGCAGAAGCGUUCACGUCGCGGCCCCUAUCAGAUUCUGGUGAAUCUGCGAAUUCUGCUGU is lower in self-cleavage: 0.969 for the first, 0.133 for the second.

Compared with GGGGGCAACAGCAGAAGCGUUCACGUCGCGGCCCCUCUCAGAUUCUGGUGAAUCUGCGAAUUCUGCUGU, GGGGGCAACAGCAGAAGCGUUCACGUCGCGGCCCCUUUCAGAUUCUGGUGAAUCUGCGAAUUCUGCUGU is lower in self-cleavage: 0.122 for the first, 0.0728 for the second.

Compared with GGGGGCAACAGCAGAAGCGUUCACGUCGCGGCCCCUGUCAGAUUCUGGUGAGUCUGCGAAUUCUGCUGU, GGGGGCAACAGUAGAAGCGUUCACGUCGCGGCCCCUGUCAGAUUCUGGUGAAUCUGCGAAUUCUGCUGU is higher in self-cleavage: 0.515 for the first, 0.592 for the second.

First: GGGGGUCACAGCAGAAGCGCUCACGUCGCGGCCCCUGUCAGAUUCUGGUGAAUCUGCGAAUUCUGCUGU
Second: GGGGGUCACAGCAGAAGCGAUCACGUCGCGGCCCCUGUCAGAUUCUGGUGAAUCUGCGAAUUCUGCUGU
The self-cleavage of the first is higher: 0.144 for the first, 0.115 for the second.

Compared with GGGGGCAACAGCAGUAGCGUUCACGUCGCGGCCCCUGUCAGAUUCUGGUGAAUCUGCGAAUUCUGCUGU, GGGGGCAACAGCAGAAGCGUUCACGUCGCGGCCCCUGUCAGCUUCUGGUGAAUCUGCGAAUUCUGCUGU is higher in self-cleavage: 0.135 for the first, 0.322 for the second.

First: GGGGGCAACAGCAGAAGCGUUCACGUCGCGGCCCCUGUCAGUUUCUGGUGAAUCUGCGAAUUCUGCUGU
Second: GGGGGCAACAGCAGAAGCGUUCACGUCGCGGCCCCUGUCAGGUUCUGGUGAAUCUGCGAAUUCUGCUGU
The self-cleavage of the first is lower: 0.349 for the first, 0.471 for the second.

First: GGGGGCAACAGCAGAAGCGUUCACGUCGCGGCCCCAGUCAGAUUCUGGUGAAUCUGCGAAUUCUGCUGU
Second: GGGGGCAACAGCAGAAGCGUUCACGUCGCGGCCCCUGUCAGAUUCUGGUGAAUCUGCGAGUUCUGCUGU
The self-cleavage of the first is lower: 0.127 for the first, 0.272 for the second.

Compared with GGGGGCAACAGCAGAAGCGUUCACGUCGCGGCCCCUGUCAGAUUCUGCUGAAUCUGCGAAUUCUGCUGU, GGGGGCAAAAGCAGAAGCGUUCACGUCGCGGCCCCUGUCAGAUUCUGGUGAAUCUGCGAAUUCUGCUGU is higher in self-cleavage: 0.681 for the first, 0.97 for the second.

First: GGGGGCAACAGCAGAAGCGUUCACGUCGCGGCCCCUGUCAGAUUCUGGUGAAUCUUCGAAUUCUGCUGU
Second: GGGGGCAACAGCAGAAGCGUUCACGUCGCGGCCCCUGUCAGAUUCUGGUGAAUCUGCGAAUUCUGCUCU
The self-cleavage of the first is lower: 0.357 for the first, 0.923 for the second.

— the RNAGym collection of RNA variant scans (doi:10.7554/elife.80360)
